Assay results taken from the nanobody polyreactivity screen of Harvey et al. (2022).

Assay: yeast display, Sf9 membrane polyspecificity reagent, FACS + sequencing; frameworks hold sequencing errors
In short: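 Nanobodies from a synthetic yeast display library (Saccharomyces cerevisiae BJ5465), induced 36–48 hours with galactose, were stained 1 hour at 4 °C with 10% biotinylated, detergent-solubilized Sf9 membrane reagent, enriched on streptavidin microbeads, then FACS-sorted. Anti-HA (expression) and streptavidin (reagent binding) fluorescence set low and high (top ~1%) gates. Polyreactivity labels come from the gate of origin. Genes were colony-PCR amplified, MiSeq 2 × 250 sequenced and filtered by CDR length.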

Row | Sequence | polyreactivity (PSR sort gate)
1 | QVQLVESGGGLVQAGGSLRLSCAASGSYLRYYAMGWYRPARGKERELVAAISRSGTNTYYAHSVKGRFTISRDNAKNTVYLQMNSLKPEDTAVYYCAARGYYRDYDSWGQGTQVTVSS | high polyreactivity
2 | QVQLVESGGGLVQAGGSLRLSCAASGSTFTGNAMGWYRQAPGKERELVAAISRSGGSTFYADSVKGRFTISRDNAKYTVYLQMNSLKAEDTAVYYCATRYVVDMDYWGQGTQVTVSW | high polyreactivity
3 | QVQLVESGGGLVQAGGSLRLSCAASGRIFDIYAMGWSRQAPGKERELVAAIDESGGSTYYADSVKGRFTISRDNAKNTVYLQMNSLKPEDTAVDYCATDDTWTIAYGWYWFTYEYWGQGTQVTVSS | low polyreactivity
4 | QVQLVESGGGLVQAGGSLRLSCAASGRTFLYYTMGWYRQAPGKERELVAAITSGTSTNYADSVKGRFTISRDNAKNTVYLQMNSLKPEDTAVYYCNKRAARSLNGYPLYGYYYWGQGTQVTVSS | low polyreactivity
5 | QVQLVESGGGLVQAGGSLRLSCAASGRTFSAYAMGWYRQAPGKERELVAAISRRGGSTYYADSVKGRFTISRDNAKNTVYLQMNSLKPEDTAVYYCAAKIYYRSRAEMDWGQGTQVTVSS | high polyreactivity
6 | QVQHVESGGGLVQAGGSLRLSCAASGSTFGYNPMGSYRQAPGKERELTNYADSVKGRFTISRDNAKNTVYLQMNSLKPEDTAVYYCNAQIDFGDPEKRAWGYDYWGQGTQVTVSS | low polyreactivity
7 | QVQLVESGGGLVQAGGSLRLSCAASRFIFSWYAMGWYRQAPGTERELVATISSSGGRTHYADSVKGRFTISRDNAKNTVDLHMKSLKPEVTEVYYCAAHPFYYFTTVYYWGQGTQVTVSS | high polyreactivity
8 | QVQLVESGGGLVQAGGSLRLSCAASGRTFYYNAMGWYRQAPGKERELVATITSGGSTNYADSVKGRFTISRDYAKNTVYLQMNSLKPEDTAVDYCATTRYRTYADVNSRYGYWGQGTQVTVSS | low polyreactivity
9 | LVQLQESGGGLVQACGSLRLSCAASGDIFDADIMGWYRQAPGKERELVASITDGGSTNYADSVKGRFTISRDNAKNTVYLPMNSLKPEDTAVYYCAKPATYYELDYWGQGTQVTVSS | low polyreactivity
10 | QVQLVESGGGLVQAGGSLRLSCAASGGTSFYAMGWYRQAPGKDRELVAAITRSGGSTYYADSVKGRFTFSRDNAKNTVYLQMNSLKPEDTAVYYCAALSNHGYYIRMDYWGQGTQVTVSS | high polyreactivity
11 | QVQLVESGGGLVQAGGSLRLSCPASGFNFLYYAMGWYRQAPGTEREFVAAIRSSGTTTSYADSVKGRFTISRDNAKNTVYLEMISLKPVDTAVYYCAAGYFGPQQYYYWGQGSQVTVSS | high polyreactivity
12 | QVQLVESGVGLVQAGGSLRLSCAASGFIFRKYTMGWYRQAPGKERELVATIDSSGGSTYYADSVKGRFTISRDNAKNTVYLQMNSLKPEDTAVYYCNADLRELSPWYWYSGEMDYWGQGTQVTVSS | low polyreactivity
13 | QVQLVESGGGLVQAGGSLRLSCAASGFTFGDYAMYWVRQAPGKGLEWVSSIDSRGGSTYYADSVKGRFTISRDNAKNTVYLQMNSLKPEDTAVYYCAKPGNHRYDYWGQGTQVTVSS | high polyreactivity
14 | QVQLVESGGGLVQVGGSLRLSCAASGGIFSGNAMGWSRPAPGKERELVAGITNGGRTTYADSVKGRFTISRDNAKNTVYLQMNSLKPEDTAVYYCNVYVSAGEEDEYWGQGTQVTVSS | low polyreactivity
15 | QVQLVESGGGLVQAGGSLRLSCAASGFTIGYNVMGWYREAAGKERELVATISWNGARTYYADSVKGRFTISRDNAKNTVYLQMNSLKPEDTAVYYCAARRYYRGEYDYWGQGTQVTVSS | low polyreactivity
16 | QVQIVESGGGLVQAAGSLRLSCAASGSTLAPYAMGWYRQAPGKERELVASINWGGTTTYYADSVKGRFTNSRDNAKNKVYLQMNSLKPEDTAVYYCAALGLSWGRSGYYYEYYYWGQGTQVTVSS | high polyreactivity
17 | QVQLVESGGGLVQAGGSLRLSCAASGRTFGVNMGWYRQAPGKERELVAGITSGGSTYYADSVKGRFTISRDNAKNTVYLQMNSLKPEDTAVFYCAKSYRGKWSPYYYWGQGTQVTVSS | high polyreactivity
18 | QVQLVESGGGLVQAGGSLRLSCAASGRIFTVNAMGGYRQAPGKERELVAAITFSGANTYYADSVKGRFTISRDNAKNTVFLQMNSLKPEDTAVYYCAGDPPNGAEYYWGQGTQVTVSS | high polyreactivity
19 | QVQLVESGGGLVQAGGSLRLSCAASGRIFWRYAMGWYRQAPGKERELVAAISSGGSTTYADSVKGRFTISRDNAKNTVYLQMNSLKPEDTAVYYCNARQYTRPYAFDYWGQGTQVTVSS | low polyreactivity
20 | QVQLVESGGGLVQEGGSLRLSCAASGSIFKEYAMGWSRQAPGKERELVAAISTSGDITYYSDSVKGRFTISRDNAKNTVYLQMNSLKPEDTGVYYCAANYSLLRQYNRLDYWGQGTQLTVSS | low polyreactivity
21 | QVQLVESGGGLVQAGGSLLLSCAASGSIFGWYVMGWYRQEPGKERELVAAISSVGSTYYADSVKGRFTISRDNAKNTVYLQMNSLKPEDTAVYYCATDSNPKWDYALDSWGQGTQVTVSS | low polyreactivity
22 | QVQLVESGGGLVQAGGILRLSCAASGRILDYYAMGWYRQAPGKERELVAAISRSGSDTYYADSVKGRFTISRDNAKNTVYLQMNSLKPEETAVYYCAARWSYRSLARYNYWGQGTQVTVSS | low polyreactivity

Row | Sequence | polyreactivity (PSR sort gate)
23 | HVQLVESGGGLVQAGGSLRLSCASSGSIFWANAMGWYRQAPGKERELVATITSGGRTYYADSVKGRFTISRDNAKNTVYLQMNSLKPEDTAVYYCARVPPQYRWGRRLVYVHVDYWGQGTQVTVSS | low polyreactivity
24 | QVQLVESGGGLVQAGGSLRLSCAPSGRTFIFYAMGWSRQAPGKERELVAAISSSGSGTYYADSVKGRFTISRDNAKNTVYLQMNSLIPEDTAVYYCAADVVNSRRRPKYGYWGQGSQVTVSS | low polyreactivity
25 | QVQIVESGGGLVQAGGSLRLSCAASGGTFWANAMGWYRQAPGKERELVAAITSGGSTYADSVKGRFTISRDNAKNTVYLQMNSLKPDDTAVYYCNARRYRYRPYLSGYNYWGQGTQVTVSS | high polyreactivity
26 | QVQLVESGGGLVQAGGSLRLSCAASGSTFYAYVMGWYRQAPGKERELVAGISWSGGSTYYADSVKGRFTISRDNAKNTVYLQMNSLKPEDTAVYFFAADYYNTYGYDYWGQGTQVTVSS | low polyreactivity
27 | QVQLVESGGGLVQAGGSLRLSCAASGRTFYWNAMGWYRQAPGKERELVAAISDGGGSTYYADSVKGRFTISRDNAKNTVYLHMNSLKPEDTAVYYCNTPDNQDKPYPGYDYWGQGTQVTVSS | low polyreactivity
28 | QVQLVESGGGLVQAGGSLRLSCAASGRTFDWYVMGWYRQAPGKERELVATITRDGSTNYADSVKGRFTISRDNAKNTVYLQMNSLKPEDTAVYYCAATVPPLVGYDYWGQGTQVTVSS | low polyreactivity
29 | QVQLVQSGGGLVQAGGSLRLSCAASGFTFRFYAMGWYRQATGKERELVASINWSGGRTYYADSVKGRFTISRDNAKNTVYLEMNSLKPVDTAVYYCATQYLIQTKYYSWGQGTQVTVSS | high polyreactivity
30 | QVQLVESGGGLVQAGGSLRLSCAASGITFWNNAMGWYRQAPGKERELVATISSNGGRTYYADSVKGRFTISRDNAKNTVYLQMNSLKPEDTAVYYCNAARRAYGYNYWGQGTQVTVSS | low polyreactivity
31 | QVQLVESGGGLVQAGGSLRLSCAASGSIFPYVNAMGWYRQAPGKERELVASIPGGGGTKYADSVKGRFTISRDNAKNTVYLQMNSLKPEDTAVYYCNATSGNPASTAWMNYWGQGTQVTVSS | low polyreactivity
32 | QVQLVESGGGLVQAGGSLRLSCAASGSTFGHYAMGWSRQAPGKERELVAVISRSGARTYYADSVKGRFTISRDNAKNTVYLQMNSLKPEDTAVYYCATTYATNYDYWGQGTQVTVSS | high polyreactivity
33 | QVQLVESGGGLVQAGGSLRLSCAASGSTFPKNAKGWYRQAPGKERELVAAINTGGSTYYADSVKGRFTISRDNAKNTVYLQINSLKPEDTAVYYCAARDNYHRDVGHPYDYWGQGTQVTVSS | low polyreactivity
34 | QVQLVESGGGLVQVGGSLRLSCAASGRTFWWYAMGWYRQAPGKERELVAAITRSGGSTYYADSVKGRFTISRDNAKYTVYLQMNSLKQEDTAVYYCAASHYGLLEYWGQGTQVTVSS | low polyreactivity
35 | QVQLVESGGGLVQAGVSLRLSCAASGFIFPYYAMGWYRQAPGKERELVAAITRGGRTYYADSVKGRFTISRDNAKNTVYLQMNSLKPEDTAVYYCAARSVGKRGYDYWGLGTQVTVSS | high polyreactivity
36 | QVQLVESAGGLVQAGGSLRLSCAASGRISAYAMGWYRQAPGKERELVAAISSRGGRTYYADSVKGRFTISRDNAKNTVYLQMNSLKPDDTAVYYCNALRTWEFDHWGQGTQVTVSS | high polyreactivity
37 | QVQLVESGGGLVKAGAILRLSCPASGSTFQSYAKGWSRQEPGKESELVAAISSGGITYYADSVKGRFTISRDNAKNTVYFQMNSLKPEDTAVYYCAKVPTYLISNRYSRYDYWGQGTQVTVSS | low polyreactivity
38 | QVQLVESGGGLVQAGGSLRLSCAASGYTFGSYAMGWYRQAPGKERELVAAIRGSGGSTYYADSVKGRFTISRDNAKNTVYLQMNSLKPEDTAVYYCATSVRRGGRQLYNYWGQGTQVTVSS | high polyreactivity
39 | QVQLVESGGGLVQAGGSLRLSCAASGFTFPYYSMGWYRQAPGKERELVAAINRSGGTKYADSVKGRFTISRDNAKNTVYVQMNSLKPEDTAVYDCAADSFYSRSRYDYWGQGSQVTVSS | high polyreactivity
40 | QVQLVESGGGLVQAGCSLRLSCAASGRIFGGYAMGWYRQAPGKERELVAAISSGGNTKYADSVKGRFTISRDNAKNTVYLQMNSLKPEDSAVYYCAAKFAQPDYRYDYWGQGTQVSVSS | high polyreactivity
41 | QVQLVESGGGLVQAGGSLRLSCAASGSIFGRNDMGWYRQAPRKERELLARITRGGSTNYADSVKGRVTISRDNAKYTVYLQMNSLKPEDTAVYYCAAGARQYRGVPDRYGYWGQGTQVTVSS | low polyreactivity
42 | QVQLVESGGGLVQAGGSLRLSCAASGSTFKYNAMGWYRQAPGKERELVARISWSGGSTYYADSVKGRFTISRDNAKNSVYLQMNSLKPEDTAVYYCAARSWWRGYSFYYWGQGTQVTVSS | high polyreactivity
43 | QVQLVESGGGLVQAGGSLRLSCAASGSIFGYNAMGWYRPAPGKERELVAAISRSGGSTYYADSVKGRFTISRDNAKNTVYLQMNSLKPEDTAVSYCATGYYGYRYGYWGQGTQVTVSS | high polyreactivity
